For this data set the following is noted: Bacillus amyloliquefaciens; pH 6.3; 25 °C; Urea; Fluorescence; MES-NaOH 50 mM; reversible: yes; whole UniProt chain shown.

B1: Ribonuclease wild type, P00648 (protein)
chain: MMKMEGIALKKRLSWISVCLLVLVSAAGMLFSTAAKTETSSHKAHTEAQVINTFDGVADYLQTYHKLPDNYITKSEAQALGWVASKGNLADVAPGKSIGGDIFSNREGKLPGKSGRTWREADINYTSGFRNSDRILYSSDWLIYKTTDHYQTFTKIR
Consider B1, for which the denaturant m value worked out at 2.21 kcal/mol/M, the “denaturant midpoint (higher = more stable)” value was determined as 4.53 M and the unfolding free energy amounted to 10 kcal/mol.
